Reference: patent publication US20240368239A1 (SL METAGEN, published 2024)
Residue numbers refer to the chain shown, from its start.

B1: MG12-4 (bispecific fusion protein of Example 4) (Fc fusion)
chain 1: HGEGTFTSDVSSYLEGQAAKEFIAWLVKGGPSSGAPPPSGGGGGSGGGGSGGGGSAKNTTAPATTRNTTRGGEEKKKEKEKEEQEERTHTCPPCPSHTQPLGVFLFPPKPKDQLMISRTPEVTCVVVDVSQEDPEVQFNWYVDGVEVHNAKTKPREEQFNSTYRVVSVLTVLHQDWLNGKEYKCKVSNKGLPSSIEKTISKAKGQPREPQVYTLPPCQEEMTKNQVSLWCLVKGFYPSDIAVEWESNGQPENNYKTTPPVLDSDGSFFLYSRLTVDKSRWQEGNVFSCSVLHEALHNHYTQKSLSLSLGK
chain 2: HGDGSFSDEMNTILDNLAARDFINWLIQTKITDGGGGSGGGGSGGGGSEKEKEEQEERTHTCPPCPSHTQPLGVFLFPPKPKDQLMISRTPEVTCVVVDVSQEDPEVQFNWYVDGVEVHNAKTKPREEQFNSTYRVVSVLTVLHQDWLNGKEYKCKVSNKGLPSSIEKTISKAKGQPREPQVCTLPPSQEEMTKNQVSLSCAVKGFYPSDIAVEWESNGQPENNYKTTPPVLDSDGSFFLVSRLTVDKSRWQEGNVFSCSVLHEALHNHYTQKSLSLSLGK
modifications: glycan linker (SEQ ID NO: 43) with N-glycosylation sites
B2: MG12-5 (bispecific fusion protein of Example 5) (Fc fusion)
chain 1: HGEGTFTSDVSSYLEGQAAKEFIAWLVKGGPSSGAPPPSGGGGSGGGGSGGGGSEKEKEEQEERTHTCPPCPSHTQPLGVFLFPPKPKDQLMISRTPEVTCVVVDVSQEDPEVQFNWYVDGVEVHNAKTKPREEQFNSTYRVVSVLTVLHQDWLNGKEYKCKVSNKGLPSSIEKTISKAKGQPREPQVYTLPPCQEEMTKNQVSLWCLVKGFYPSDIAVEWESNGQPENNYKTTPPVLDSDGSFFLYSRLTVDKSRWQEGNVFSCSVLHEALHNHYTQKSLSLSLGK
chain 2: B1 chain 2
B3: MG12-1 (bispecific fusion protein of Example 1) (Fc fusion)
chain 1: HGEGTFTSDVSSYLEGQAAKEFIAWLVKGRGGGGGSGGGGSGGGGSAKNTTAPATTRNTTRGGEEKKKEKEKEEQEERTHTCPPCPSHTQPLGVFLFPPKPKDTLMISRTPEVTCVVVDVSQEDPEVQFNWYVDGVEVHNAKTKPREEQFNSTYRVVSVLTVLHQDWLNGKEYKCKVSNKGLPSSIEKTISKAKGQPREPQVYTLPPCQEEMTKNQVSLWCLVKGFYPSDIAVEWESNGQPENNYKTTPPVLDSDGSFFLYSRLTVDKSRWQEGNVFSCSVMHEALHNHYTQKSLSLSLGK
chain 2: B1 chain 2 with Q84T, L262M
modifications: glycan linker (SEQ ID NO: 43) with N-glycosylation sites
B4: MG12-2 (bispecific fusion protein of Example 2) (Fc fusion)
chain 1: HGDGSFSDEMNTILDNLAARDFINWLIQTKITDGGGGSGGGGSGGGGSAKNTTAPATTRNTTRGGEEKKKEKEKEEQEERTHTCPPCPSHTQPLGVFLFPPKPKDTLMISRTPEVTCVVVDVSQEDPEVQFNWYVDGVEVHNAKTKPREEQFNSTYRVVSVLTVLHQDWLNGKEYKCKVSNKGLPSSIEKTISKAKGQPREPQVYTLPPCQEEMTKNQVSLWCLVKGFYPSDIAVEWESNGQPENNYKTTPPVLDSDGSFFLYSRLTVDKSRWQEGNVFSCSVMHEALHNHYTQKSLSLSLGK
chain 2: HGEGTFTSDVSSYLEGQAAKEFIAWLVKGRGGGGGSGGGGSGGGGSEKEKEEQEERTHTCPPCPSHTQPLGVFLFPPKPKDTLMISRTPEVTCVVVDVSQEDPEVQFNWYVDGVEVHNAKTKPREEQFNSTYRVVSVLTVLHQDWLNGKEYKCKVSNKGLPSSIEKTISKAKGQPREPQVCTLPPSQEEMTKNQVSLSCAVKGFYPSDIAVEWESNGQPENNYKTTPPVLDSDGSFFLVSRLTVDKSRWQEGNVFSCSVMHEALHNHYTQKSLSLSLGK
modifications: glycan linker (SEQ ID NO: 43) with N-glycosylation sites

Legend:
Assay in all cases: cell-based or functional assay
[1] = molecular target: GLP-1 receptor
[2] = molecular target: T1, human GLP-2 receptor (human, UniProt O95838 1-553)
T1 sequence (looked up): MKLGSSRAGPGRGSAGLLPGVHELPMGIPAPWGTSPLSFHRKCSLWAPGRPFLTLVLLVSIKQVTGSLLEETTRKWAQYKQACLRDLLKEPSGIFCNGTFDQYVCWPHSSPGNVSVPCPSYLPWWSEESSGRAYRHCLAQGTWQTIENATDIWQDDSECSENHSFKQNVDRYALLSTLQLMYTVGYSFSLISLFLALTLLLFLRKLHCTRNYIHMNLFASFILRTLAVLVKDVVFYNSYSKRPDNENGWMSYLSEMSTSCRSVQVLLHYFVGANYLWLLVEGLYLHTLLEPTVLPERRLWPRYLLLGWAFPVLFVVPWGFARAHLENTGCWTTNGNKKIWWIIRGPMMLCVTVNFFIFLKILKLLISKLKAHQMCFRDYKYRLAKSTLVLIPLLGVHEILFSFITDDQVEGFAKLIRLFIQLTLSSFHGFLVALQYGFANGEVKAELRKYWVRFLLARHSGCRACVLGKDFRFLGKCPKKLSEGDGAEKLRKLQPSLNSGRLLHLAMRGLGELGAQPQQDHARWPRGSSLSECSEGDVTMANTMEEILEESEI

[3] = molecular target: GLP-1 receptor; remark: listed apart in the source
[4] = molecular target: GLP-1 receptor; remark: listed apart in the source
[5] = molecular target: T1, human GLP-2 receptor; remark: listed apart in the source

EC50 (pM), cAMP luciferase reporter in GLP1R_cAMP/luc cells [1] [pM] | vs. GLP-1 relative activity (%) [1] [%] | EC50 (nM), cAMP-gated CNG channel membrane potential dye fluorescence (Ft/F0) in Human GLP2R ACTOne cells [2] [nM] | vs. GLP-2 relative activity (%) [2] [%] | fold reduction of GLP-1 activity (cAMP luciferase reporter) [3] [times] | EC50, GLP-1 activity (luciferase reporter assay) [4] [nM] | EC50, GLP-2 activity (fluorescence spectroscopy) [5] [nM] | Binder
66 | 39 | 1.22 | 48 |  |  |  | B1
75 | 35 | 0.99 | 59 |  |  |  | B2
304 | 9 | 1.35 | 43 | ~11 |  |  | B3
 |  |  |  |  | 0.402 | 44 | B4
